Experimental data published in patent US20140179896A1 (published 2014).

Assays:
[1] = molecular target: T1, human vascular endothelial growth factor receptor-2 Fc chimera (KDR-Fc) (human, UniProt P35968 20-764); experiment: radioactive equilibrium binding, 1 nM KDR-Fc
T1 construct: range 1-764; purchased from R&D Systems; also called hKDR; human VEGF-R2-Fc; not shown: human IgG1 Fc
Method in brief: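 ³⁵S-Met-labeled fibronectin-scaffold binders, made by reticulocyte lysate translation (30° C, 1 h) and Flag-purified, were held at 0.2 or 0.5 nM and incubated with 0–200 nM VEGF-R2-Fc for 1 h at 30° C in buffer B. Complexes were captured on Protein A magnetic beads, washed, KOH-eluted and counted.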
T1 sequence (P35968 20-764 limits assumed, change not shown, form in doubt): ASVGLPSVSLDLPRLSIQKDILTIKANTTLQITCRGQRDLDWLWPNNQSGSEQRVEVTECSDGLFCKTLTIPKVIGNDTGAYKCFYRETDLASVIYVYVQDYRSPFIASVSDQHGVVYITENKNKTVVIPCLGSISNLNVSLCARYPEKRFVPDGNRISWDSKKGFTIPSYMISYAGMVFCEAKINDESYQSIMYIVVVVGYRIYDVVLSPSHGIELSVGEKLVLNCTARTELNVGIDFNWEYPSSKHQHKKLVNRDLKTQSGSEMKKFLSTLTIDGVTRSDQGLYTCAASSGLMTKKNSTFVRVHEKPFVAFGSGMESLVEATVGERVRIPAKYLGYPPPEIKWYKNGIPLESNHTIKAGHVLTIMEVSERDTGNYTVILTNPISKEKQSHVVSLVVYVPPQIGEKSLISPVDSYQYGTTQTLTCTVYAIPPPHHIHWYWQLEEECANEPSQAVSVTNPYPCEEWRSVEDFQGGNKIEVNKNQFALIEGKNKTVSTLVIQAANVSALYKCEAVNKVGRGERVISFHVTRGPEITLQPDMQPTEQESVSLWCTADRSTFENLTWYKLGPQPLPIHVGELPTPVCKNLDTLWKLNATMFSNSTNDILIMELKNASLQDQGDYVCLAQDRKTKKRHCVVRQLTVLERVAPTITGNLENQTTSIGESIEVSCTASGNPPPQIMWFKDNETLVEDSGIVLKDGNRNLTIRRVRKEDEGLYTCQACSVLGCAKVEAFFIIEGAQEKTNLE

[2] = molecular target: T2, human vascular endothelial growth factor receptor-2 Fc chimera (KDR-Fc) (human, UniProt P35968 20-764); experiment: radioactive equilibrium binding assay, 1 nM KDR-Fc, % of input bound
T2 construct: range 1-764; also called human VEGFR-2; not shown: human IgG1 Fc
Description: (§1) To prepare ³⁵S-labeled binding proteins for analysis, mRNA was prepared as described above for RNA-protein fusion production but the linker ligation step was omitted. The mRNA was expressed using rabbit reticulocyte lysate translation kit (Ambion) in the presence of ³⁵S-labeled Met at 30° C. for 1 hour. Expressed protein was purified on M2-agarose Flag beads (Sigma) as described above. This procedure produced the encoded protein without the nucleic acid tail. In a direct binding assay, VEGF-R2-Fc fusions in concentrations ranging from 0 to 200 nM were added to a constant concentration of the purified protein (0.2 or 0.5 nM) and incubated at 30° C. for 1 hour in buffer B. The receptor-binder complexes were captured using Protein A magnetic beads for another 10 minutes at room temperature using a Kingfisher™ The beads were washed with six reaction volumes of buffer B. The protein was eluted from the beads with 100 μL of 0.1 M KOH. […] of the reaction mixture and elution were dried onto a LumaPlate-96 (Packard) and the amount of ³⁵S on the plate was measured using a TopCount NXT instrument (Packard). The amount of fibronectin-based scaffold protein bound to the target was estimated as a percent of radioactivity eluted from Protein A magnetic beads compare to radioactivity in the reaction mixture. Nonspecific binding of fibronectin-based scaffold proteins to the beads was determined by measuring binding in the absence of KDR-Fc and represented less than 1-2% of the input. Specific binding was obtained through subtraction of nonspecific binding from total binding. Data was analyzed using the GraphPad Prizm software (GraphPad Software, Inc, San Diego, Calif.), fitted using a one site, non-linear binding equation.
T2 sequence (P35968 20-764 limits assumed, change not shown, form in doubt): as above

[3] = molecular target: T3, mouse vascular endothelial growth factor receptor-2 Fc chimera (Flk-1-Fc) (mouse, UniProt P35918 20-762); experiment: radioactive equilibrium binding assay, 1 nM Flk-1-Fc, % of input bound
T3 construct: Bought from R&D Systems; also called mouse VEGFR-2; not shown: Fc part of the purchased chimera, not specified
T3 sequence (P35918 20-762, change not shown): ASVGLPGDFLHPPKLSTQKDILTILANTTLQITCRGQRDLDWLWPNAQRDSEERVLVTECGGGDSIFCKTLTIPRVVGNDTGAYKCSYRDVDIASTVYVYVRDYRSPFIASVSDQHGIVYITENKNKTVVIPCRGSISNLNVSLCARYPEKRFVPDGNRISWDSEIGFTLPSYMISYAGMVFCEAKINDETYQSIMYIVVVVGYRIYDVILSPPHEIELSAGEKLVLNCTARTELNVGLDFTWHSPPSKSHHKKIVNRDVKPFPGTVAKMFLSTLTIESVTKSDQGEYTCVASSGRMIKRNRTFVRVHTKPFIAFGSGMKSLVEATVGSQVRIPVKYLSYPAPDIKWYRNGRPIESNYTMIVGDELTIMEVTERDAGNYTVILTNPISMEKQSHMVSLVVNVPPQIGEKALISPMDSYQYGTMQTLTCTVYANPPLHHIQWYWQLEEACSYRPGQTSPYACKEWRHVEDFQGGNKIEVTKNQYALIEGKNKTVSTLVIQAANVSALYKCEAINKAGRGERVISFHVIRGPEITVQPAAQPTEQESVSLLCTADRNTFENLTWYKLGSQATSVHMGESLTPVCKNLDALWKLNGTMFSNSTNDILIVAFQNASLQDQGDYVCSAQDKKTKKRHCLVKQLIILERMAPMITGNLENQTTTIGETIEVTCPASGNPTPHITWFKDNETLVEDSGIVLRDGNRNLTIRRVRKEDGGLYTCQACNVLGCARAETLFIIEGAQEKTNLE
Description: as §1

Binder	Binding to 1 nM KDR, % [1] [%]	Binding to 1 nM KDR, % [2] [%]	Binding to 1 nM Flk-1, % [3] [%]
2C6 PR3 (designed binder, tag left out) VSDVPRDLEVVAATPTSLLISWRHPHFPTRYYRITYGETGGNSPVQEFTVPLQPPTATISGLKPGVDYTITGYAVTVEPNGHKLAIPISINYRT	5		
EGE1 (designed binder, 10Fn3 clone, Del 1-8) EVVAATPTSLLISWRHPHFPTRYYRITYGETGGNSPVQEFTVPLQPPTATISGLKPGVDYTITGYAVTLERNGRKLMTPISINYRT		30	29
F9 (designed binder, 10Fn3 clone, Del 1-8) EVVAATPTSLLISWRHPHFPTRYYRITYGETGGNSPVQEFTVPLQPPTATISGLKPGVDYTITGYAVTVEPNGRVLNTPISINYRT		32	23
F1 (designed binder, 10Fn3 clone, Del 1-8) EVVAATPTSLLISWRHPHFPTRYYRITYGETGGNSPVQEFTVPLQPPTATISGLKPGVDYTITGYAVTSGRNDRELLVPISINYRT		18	2
FE (designed binder) EVVAATPTSLLISWRHPHFPTRYYRITYGETGGNSPVQEFTVPLQPPTATISGLKPGVDYTITGYAVTVERDGRELNIPISINYRT		12	8
F8 (designed binder, 10Fn3 clone, Del 1-8) EVVAATPTSLLISWRHPHFPTRYYRITYGETGGNSPVQEFTVPLQPPTATISGLKPGVDYTITGYAVTVEHNGRTSFTPISINYRT		33	13
EGE5 (designed binder, 10Fn3 clone, Del 1-8) EVVAATPTSLLISWRHPHFPTRYYRITYGETGGNSPVQEFTVPLQPPTATISGLKPGVDYTITGYAVTLERNGRVLNTPISINYRT		32	47
EGE11 (SEQ ID NO 72) (designed binder) EVVAATPTSLLISWRHPHFPTRYYRITYGETGGNSPVQEFTVPLQPPTATISGLKPGVDYTITGYAVTFGWNDRELLIPISINYRT		50	0
F3 (designed binder, 10Fn3 clone, Del 1-8) EVVAATPTSLLISWRHPHFPTRYYRITYGETGGNSPVQEFTVPLQPPTATISGLKPGVDYTITGYAVTVERDGRKLYTPISINYRT		27	15
G4 (designed binder, 10Fn3 clone, Del 1-8) EVVAATPTSLLISWRHPHFPTRYYRITYGETGGNSPVQEFTVPLQPPTATISGLKPGVDYTITGYAVTIEKNGRHLNIPISINYRT		21	12
EGE7 (designed binder, 10Fn3 clone, Del 1-8) EVVAATPTSLLISWRHPHFPTRYYRITYGETGGNSPVQEFTVPLQPPTATISGLKPGVDYTITGYAVTLERNDRVLLTPISINYRT		31	30
F4 (designed binder, 10Fn3 clone, Del 1-8) EVVAATPTSLLISWRHPHFPTRYYRITYGETGGNSPVQEFTVPLQPPTATISGLKPGVDYTITGYAVTVERDGRTLRTPISINYRT		31	18
G2 (designed binder, 10Fn3 clone, Del 1-8) EVVAATPTSLLISWRHPHFPTRYYRITYGETGGNSPVQEFTVPLQPPTATISGLKPGVDYTITGYAVTLERNNRELLTPISINYRT		25	9
EGE9 (designed binder, 10Fn3 clone, Del 1-8) EVVAATPTSLLISWRHPHFPTRYYRITYGETGGNSPVQEFTVPLQPPTATISGLKPGVDYTITGYAVTFGPNDRELLTPISINYRT		32	1
F10 (designed binder, 10Fn3 clone, Del 1-8) EVVAATPTSLLISWRHPHFPTRYYRITYGETGGNSPVQEFTVPLQPPTATISGLKPGVDYTITGYAVTMAPNGRELLTPISINYRT		29	1
EGE3 (designed binder, 10Fn3 clone, Del 1-8) EVVAATPTSLLISWRHPHFPTRYYRITYGETGGNSPVQEFTVPLQPPTATISGLKPGVDYTITGYAVTVERNGRQLYTPISINYRT		34	38
EGE11 (SEQ ID NO 87) (designed binder) EVVAATPTSLLISWRHPHFPTRYYRITYGETGGNSPVQEFTVPLQPPTATISGLKPGVDYTITGYAVTMGKNDRELLTPISINYRT		32	1
F11 (designed binder, 10Fn3 clone, Del 1-8) EVVAATPTSLLISWRHPHFPTRYYRITYGETGGNSPVQEFTVPLQPPTATISGLKPGVDYTITGYAVTVEQNGRVLNTPISINYRT		20	8
EGE10 (designed binder, 10Fn3 clone, Del 1-8) EVVAATPTSLLISWRHPHFPTRYYRITYGETGGNSPVQEFTVPLQPPTATISGLKPGVDYTITGYAVTMGPNDRELLTPISINYRT		37	1
EGE2 (designed binder, 10Fn3 clone, Del 1-8) EVVAATPTSLLISWRHPHFPTRYYRITYGETGGNSPVQEFTVPLQPPTATISGLKPGVDYTITGYAVTVERNGRQLMTPISINYRT		42	33
EGE8 (designed binder, 10Fn3 clone, Del 1-8) EVVAATPTSLLISWRHPHFPTRYYRITYGETGGNSPVQEFTVPLQPPTATISGLKPGVDYTITGYAVTVERNERVLMTPISINYRT		26	20
EGE6 (designed binder, 10Fn3 clone, Del 1-8) EVVAATPTSLLISWRHPHFPTRYYRITYGETGGNSPVQEFTVPLQPPTATISGLKPGVDYTITGYAVTLERNGRLLNTPISINYRT		33	40
G3 (designed binder, 10Fn3 clone, Del 1-8) EVVAATPTSLLISWRHPHFPTRYYRITYGETGGNSPVQEFTVPLQPPTATISGLKPGVDYTITGYAVTMERSGRELMTPISINYRT		28	10
F7 (designed binder, 10Fn3 clone, Del 1-8) EVVAATPTSLLISWRHPHFPTRYYRITYGETGGNSPVQEFTVPLQPPTATISGLKPGVDYTITGYAVTVEHNGRVLNIPISINYRT		30	7
EGE4 (designed binder, 10Fn3 clone, Del 1-8) EVVAATPTSLLISWRHPHFPTRYYRITYGETGGNSPVQEFTVPLQPPTATISGLKPGVDYTITGYAVTVERNGRVLNTPISINYRT		26	41
F6 (designed binder, 10Fn3 clone, Del 1-8) EVVAATPTSLLISWRHPHFPTRYYRITYGETGGNSPVQEFTVPLQPPTATISGLKPGVDYTITGYAVTVEQNGRVLMTPISINYRT		37	2
E23 (designed binder, 10Fn3 clone, Del 1-8) EVVAATPTSLLISWRHHPHFPTRYYRITYGETGGNSPVQEFTVPLQPPTATISGLKPGVDYTITGYAVTVHWNGRELMTPISINYRT		36	7
